Source: the DeepSol protein solubility set

Experiment: soluble on expression in E. coli; label from the status in PepcDB or PDB records

Sequence	soluble on expression in E. coli
PVVLESKQRGPCAMSRLIVKNLPNGMKEERFRQLFAAFGTLTDCSLKFTKDGKFRKFGFIGFKSEEEAQKAQKHFNKSFIDTSRITVEFCKSFGDPAKPRAWSKHAQKPSQPKQPPKDSTTPEIKKDEKKKKVAGQLEKLKEDTEFQEFLSVHRRRAQAATWANDGLDAEPSKGKSKPASDYLNFDSDSGQESEEEGAGEDLEEEASLEPKAAVQKELSDMDYLKSKMVKAGSSSSSEEEESEDEAVHCDEGSEAEEEDSSATPVLQERDSRGAGQEQGMPAGKKRPPEARAETEKPANQKEPTTCHTVKLRGAPFNVTEKNVMEFLAPLKPVAIRIVRNAHGNKTGYIFVDFSNEEEVKQALKCNREYMGGRYIEVFREKNVPTTKGAPKNTTKSWQGRILGENEEEEDLAESGRLFVRNLPYTSTEEDLEKLFSKYGPLSELHYPIDSLTKKPKGFAFITFMFPEHAVKAYSEVDGQVFQGRMLHVLPSTIKKEASEDASALGSSSYKKKKEAQDKANSASSHNWNTLFMGPNAVADAIAQKYNATKSQVFDHETKGSVAVRVALGETQLVQEVRRFLIDNGVSLDSFSQAAAERSKTVILVKNLPAGTLAAELQETFGRFGSLGRVLLPEGGTTAIVEFLEPLEARKAFRHLAYSKFHHVPLYLEWAPVGVFSSAAPQKKKLQDTPSEPMEKDPAEPETVPDGETPEDENPTEEGADNSSAKMEEEEEEEEEEEESLPGCTLFIKNLNFDTTEEKLKEVFSKVGTVKSCSISKKKNKAGVLLSMGFGFVEYRKPEQAQKALKQLQGHVVDGHKLEVRISERATKPAVTLARKKQVPRKQTTSKILVRNIPFQAHSREIRELFSTFGELKTVRLPKKMTGTGTHRGFGFVDFLTKQDAKRAFNALCHSTHLYGRRLVLEWADSEVTLQALRRKTAAHFHEPPKKKRSVVLDEILEQLEGSDSDSEEQTLQL	soluble
PVYVDFDVPADLEDDALEALEVARDTGAVKKGTNETTKSIERGSAELVFVAEDVQPEEIVMHIPELADEKGVPFIFVEQQDDLGHAAGLEVGSAAAAVTDAGAAATVLEEIADKVEELR	soluble
QEGDAAKGEKEFNKCKACHMVQAPDGTDIVKGGKTGPNLYGVVGRKIASVEGFKYGDGILEVAEKNPDMVWSEADLIEYVTDPKPWLVEKTGDSAAKTKKTFKLGKNQADVVAFLAQHSPDAGAEAAPAEGAAN	soluble
QFLFSMSTGPFICTVKDNQVFVANLPWTMLEGDDIQVGKEFAARVEDCTNVKHDMAPTCTKPPPFCGPQDMKMFNFVGCSVLGNKLFIDQKYVRDLTAKDHAEVQTFREKIAAFEEQQENQPPSSGMPHGAVPAGGLSPPPPPSFCTVQ	soluble
QGDIGIDNLRNFYTKKDFVDLKDVKDNDTPIANQLQFSNESYDLISESKDFNKFSNFKGKKLDVFGISYNGQSNTKYIYGGVTATNEYLDKSRNIPINIWINGNHKTISTNKVSTNKKFVTAQEIDVKLRKYLQEEYNIYGHNGTKKGEEYGHKSKFYSGFNIGKVTFHLNNNDTFSYDLFYTGDDGLPKSFLKIYEDNKTVESEKFHLDVDISYKA	soluble
QGFSQEKYAHNALNRRGFIELKSQARGQISTGGQVLAESYQDEEGFYQRRYVTNPAIYGPIEGYLSDIYGASGMESNLNGVLSGTDSSVSVRRWTDELLGRKHSGANVELTLLPQVQEVAYNQMANAGYEGAVVAIKPSTGEILAMASTPSYDPSAIVNPDTAEQTWAALNADPGNPLLNHATQETLPPGSTFK	not soluble
QGKTTVTAALARLHARQGRRVRVFKCGPDFLDPMILARASGAPVYQLDLWMVGEAEARRLLARAAGEADLILIEGVMGLFDGNPSAADLARRFGVPVLGVINGAAMAQTFGALAYGLAHFQPDLPFSGVLGNRVGSQRHSDILRDCLPPGMRWFGGLPRSAEFELPSRHLGLVQAEELADLDARLDAAADALRASAETDLPEPVTFEVPAPAPLQRSLEGVRIGVARDASFAFLYQANLDLLRELGAELAFFSPLQDQALPAVDSLYLPGGYPELHLGRLQGNRAMAEAIRAHHAAGKPLLAECGGMLYLLDCLEDADGERGELLGLLPGRARLQKRLTALALQEVELPEGRLRGHTFHHSTLDCAVEPLARGVCPNGRNTAEAVFRLGRLTASYIHFYLPSNPQAAAALLAPARDA	not soluble
QGVRTFVDPFTFEDPNQAVREFAKEIDASCIKIEKVIGVGEFGEVCSGRLKVPGKREICVAIKTLKAGYTDKQRRDFLSEASIMGQFDHPNIIHLEGVVTKCKPVMIITEYMENGSLDAFLRKNDGRFTVIQLVGMLRGIGSGMKYLSDMSAVHRDLAARNILVNSNLVCKVSDFGMSRVLEDDPEAAYTTRGGKIPIRWTAPEAIAYRKFTSASDVWSYGIVMWEVMSYGERPYWDMSNQDVIKAIEEGYRLPPPMDCPIALHQLMLDCWQKERSDRPKFGQIVNMLDKLIRNPNSLKRTGSESS	soluble
QKFIARNRAPRVQIEYDVEIYGAERKIQLPFVMGVLADLAGKSNTPQPEVGERKFLDVDIDNFDERMKSVAPRAAFQVANTLTGAGHLNVDITFESIDDFSPATVARKVGALNEMLEARTQLANLLTYMDGKTGAEELIGQVLQNPALLGALAAAPKPA	not soluble
QKSNRKDYSLTMQSSVTVQEGMCVHVRCSFSYPVDSDTDSDPVHGYWFRAGNDISWKAPVATNNPAWAVQEETRDRFHLLGDPQTKNCTLSIRDARMSDAGRYFFRMEKGNIKWNYKYDQLSVNVTALTHRP	soluble
QLFSNNLLQENAHKYVREVIGSIPNTQVIRDQLLEENNRKHIEVVLIGATVSPAQIDSAKTKLSSYGLSGVELNIKQGFGYEQEETDVNELKSVLLKDLYDNGEKIIRNQQRQIDSLRNVLNFYNRFSSMESEIAQELQ	not soluble
QLIAATGCPTGIAHTYMAQEALEQAAKRKGITIKVETHGQIGIENELTPAEIQGAEAVIIAADKDVQAERFAGKRIIDVPVSVGIKEADRLIEEALAGKGSIA	not soluble
QPALPEAMYQLLSGAHYRTSPLDLRRMMDAPGQAFRCARTGGAVAGALWLVAEGGLSPELSRAVWAGFRRPRGNLVAQSLAAHGGSPLAATLRGLRVSRIAVHPTRQREGLGRKMIADIAADAAGYDYLSVSFGYTAELWRFWQRCG	not soluble
QRSHVASCSHSLSVIQFNLFYENSDINQFINYLLRHPADLVVMQELTPRVGSLLHMLDDVYPHYHGGQRDVGYPSNLMILSRHPITEVSVYRAPNGQEVIRAVWLPKGQAPITLFAAHPPSPRTSELWHQRNALVRTIETLTALYPEPEVLVVGDFNLSSVSPRFSTLFPSFQTAPVTSWPTNIKGINVPEPMMIGIDHLWLKSEQGQRIICSRESSALPQGSDHRMVTTQIGVHIP	not soluble
QSAYSRIEAESYSNQSGIQTETCSEGGEDVGFVENGDYTVYNNVDFGDGVGGFQARVASATSGGNIEIRLDSSTGTLIGTCPVAGTGDWQTYTDAKCTVSGVTGKHDVYLVFKGDSGYLFNLNWFTFSE	soluble
QSKTATVFLHGYNGGAYSTNYLIRKAEKAGAAQKALVVHVYKNGVMAFKGYWQKSIKNPMVQVVFQDNHASQKAQIYWLHQVLVQLKAKYGVKAYNAVGHSLGANDIVNQALKYGHDKRLPTLNKIVTIGGPFDGLTGFLSTQTEATVRRLDVKPSRFTKHFSEMLKYRHNFPDNVKLLNVYGDTNTGYNNDGFVGVASARSIRYLLRGKLTQYQEAFYSGEQAAHCALNQNPSVAHKMIAFLW	not soluble
QSPAEIASFSPRPSLADSKAVLNQAVADLSVAHSILHQVHWYMRGRGFMIWHPKMDEYMEEIDGYLDEMSERLITLGGAPFSTLKEFSENSQLKEVLGDYNVTIEEQLARVVEVFRYLAALFQKGFDVSDEEGDSVTNDIFNVAKASIEKHIWMLQAELGQAPKL	soluble
QTLLNVTLESESMAVDEVVVSARRLNRNDLGISDKEMVSATQKVDMEKLIAAAPVVSIEEALQGQLGGVDIVLGGDPGSRSAIRIRGTSTLNASSDPLIVIDGVPYPTEISDDFNFSTATEEDLGALLNISPNDIASVEVLKDASATAIWGTQGANGVLVIKTKQGT	not soluble
QVRLVESGGGVVQPGGSLRLSCEGSGFKFGDHGIHWVRQAPGEGLQWLTVISSDGTDERYTDSVKGRFTISRDNSKNTMSLQMNNLRPEDMGLYYCARDGKCGGGRCYSGLLDYWGQGTMVTVSSASFKGPSVFPLAPSSKSTSGGTAALGCLVKDYFPEPVTVSWNSGALTSGVHTFPAVLQSSGLYSLSSVVTVPSSSLGTQTYICNVNHKPSNTKVDKKVEPKSCDKTHTGLEHHHHHH	soluble
QYVKPELPDVATLKDVELQTPMQVFSQDGKLIAQFGEKRRIPVTYDEIPQDLIHALIATEDSRFYEHPGIDPIGITRAAVVVALSGSAKQGASTITQQLARNFFLSNEKKLMRKIKEIFIAIHIEQLLSKQEIMELYVNKIFLGYRSYGFGAAAQVYFGKSLNELSLSEIATLAGMPKAPSTMNPIYSLERATKRRNVVLMRMLDEKYITQEQFDEARNEPIIARYHSAEIEVSAPYVAELARAWAVKEYGEEKAYTSGLNIYMTVDSKLQDAANKAAVNNLMAYDERHGYRGAEKVLWKEGEAAWDAEQIEKHLKGQPTYGDLYPAVVTKVEGKTAQVVVKNNDAQTIPWTGINWARKFLTDNRQGSTPKSAQEVLAAGEQIWVRELTTTDEDGNTQSSWKLSQVPSANT	not soluble
RFTPRWIVRFLVENSLGRLWAEMHPDSRLKDSLSYLVPIENSQAHPLKLVRDITFLDPSCGSMHFGLVAFDLFAEMYREEFEKAGQPGWPENPSVNAEDEIASSIIAHNLHGIDIDLRSVQISALTLLLRARTLSPKCAFTDRNLACANVEQTSGGKLETLIAAAKFSHPIYERVLRTLAAEMKDSDQLGSLLRLERSLERLVIEERRKAEENKQFLLSFPGISPEQFDTQAGIEEFFDLLSDQLLRHLDFFVRASREMGGDPGHIVNEAAKGLRYMQLVSHHYDVVATNPPYMSRRNMSDVIAKHLDKHYPETKGDLYAAFIARCLELVAPQGKVAMVTQQSFMFIGTYEKFRSNLLSRVTVETMAHLGPKAFPNITGEKVNTTAFVIRREPDG	not soluble
RGDSLNYRLLRPEVEKTGLQYPLVLFLHGAGERGSDNEKQLTHGGQMFLNPVNREKYPAFVLVPQCPEKDYWAYTSRPSSFIPSEMPVGQEITPVLRAVKELLDTYLDLPQVDRNRIYVVGLSMGGMATYDLAVRFPDTFAAAVPICGTVNPVRLADAANVRFRIFHGDADNVVPVEGSREAYKALKNLGAEVEYIEFPGCNHGSWNPAFNYPGFMEWLFAQRK	not soluble
RGVLEGTVRIGALPLSRTRLLPSAIAAFLAQHPGITLMTNESPYESLVADMRAGNIDFIIGALRQDEDLPDLCSEALFEEDMLILLRNNHPLLRHPDPRSQLATAQWVLPRANAPARNLLDKAFVTLGLPLPQPTVETGDAAMVR	not soluble
RIIEINPEEGWVRVEAGVIKDQLNQFLKPYGYFFAPELSTSNRATLGGMINTDASGQGSLVYGKTSDHVLGLRAVLMGGDILDTQAVPVALAETLGNTPSTVGRIYNTVYQRCKAQRDLIIDKFPKLNRFLTGYDLRHVFNDEMSEFDLTRILTGSEGTLAFITEARLDITRLP	not soluble
RIRKIIAGYQTELEASQEQEKKARQEKDELMRNMAHDLRTPLTGVMTYVDVMKLENEAYAENMKNLNFISEKVLDIRTQVDNLLDFSIAGSQRPVELDASMDVEYIFGDYLSDVCAQLMKSNYEVDAEGISFKQVKVAVNMAFLTRIFSNLTDNIYKYADNKKPVVMKTAFTKKTFSVEIGNGVCDNKTLLKSAGIGLKSVDAMMQRMNGSMSFKREHGKFWVKLEFPIV	not soluble
